The text below walks through data of the nanobody polyreactivity screen of Harvey et al. (2022).

A short description of the data set: yeast display, Sf9 membrane polyspecificity reagent, FACS + sequencing; frameworks hold sequencing errors. The gist of the method:
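In a synthetic yeast display library (Saccharomyces cerevisiae BJ5465), nanobody expression was induced with galactose for 36–48 hours. FACS gates were set low and high (top ~1%) using anti-HA fluorescence for expression and streptavidin fluorescence for binding of the Sf9 membrane reagent. Each polyreactivity label is drawn from the gate of origin.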
In the case of “QVQLVESGGGLVQAGGSLRLSCSDSGFIYRMYAMGWYRQAHGKETELVSAISSDASTNYADSVKGRFTISRDNAKNTVYLQMNSLKPEDTAVYYCAAAVKRGYAQSFISDGYGYWGQGTQVTVSS”, the “polyreactivity (PSR sort gate)” value is on record as “low polyreactivity”. In the case of “QVQLVESGGGLVQAGGSLRLSCSPSGSILYGNAMGWYRQAPGKERELVAAITSGGSTYYADSVKGRFTISRDNAKNTVYLQMNSLKPEDTAVYYCNTVWATKGDYWGHGTQVTVSS”, the “polyreactivity (PSR sort gate)” value was “high polyreactivity”. As for “QVQLVESGGGLVQAGGSLRLSCSSSGRIFNDYAMGWYRKAPGKERELVATYADSEKGRFTISRYTAKKTVYLQMNSLKPEDTAVYYCAADFPSFPDFRPEYDYWGQGPQVTVSS”, the “polyreactivity (PSR sort gate)” value is given as “low polyreactivity”. Under “QVQLVESGGGLVQAGGSLRLSCTASGFTFVYYAMGWYRQAPGKERELVASISRSGGSTYYADSVKGRFTISRDNAKNTVYLQMNSLKPEDTAVYYCNARYGRTALLDYWGQGTQVTVSS” stands “high polyreactivity”; under “QVQLVESGGGLVQAGGSLRLSCTASGFTSRIYAMGWYRQAPVKERELVAAITRGVSTNYSDSVKGRFTISRDNAKNTVYLQMNSLKPEDTAVYYCAARTSGSYPYRTINEYWGQGTQVTVSS”, “high polyreactivity”. The same measure for “QVQLVESGGGLVQAGGSLRLSCVASGRTFATYTLGWYRPAPGKERELVAAITTSGGTYYADSVKGRFTISRDNAKNTVYLQMNSLKPEDTAVYYCANVSYYTSAPWYYYWGQGTQVTVSS”: “high polyreactivity”. The same measure for “QVQLVESGGGLVQAGGSLRLSCVPTDMGWYRQAPGKERELVATISLSDGNTYYADSVKGRFTISRDNAKNTVYLQMNSLKPEDTAVYYCNALHTWHQTYDYWGQCTQVTVSS”: “low polyreactivity”; for “QVQLVESGGGLVQAGGSLRLSFAASGFTFCIYAMGWYRQAPGKERELVAAINVSEGSTYYADSVKGRFTISRDNAKNTVYLQMNSLKPEDTAVYYCDAYLYDTIYTSYREYDYWGQGTQVTVSS”: “low polyreactivity”. “QVQLVESGGGLVQAGGSLRLSFAASGFTFQWYGMGWSRQAPGKERELVAAINYSGGSTYYADSVKGSFTLSRDNAKNTVYLQMNSLKPEDTAVYYCAAEFYSWPWLRLAPWSMDYWGQGTQVTVSS”: the “polyreactivity (PSR sort gate)” value is listed as “high polyreactivity”.

Turning to “QVQLVESGGGLVQAGGSLRLSFAASGFTFRLYAMGWYRQAPGKERELVAAITSSSGSTYYADSVKGRFTISRDNAKNTVYLQMNSLKPEDTAVYYCNADRGDSSRRYGYWGQGTQVTVSS”, the “polyreactivity (PSR sort gate)” value was “high polyreactivity”.

On to “QVQLVESGGGLVQAGGSLRLSFAASGFTFRNYAKGWYRQAPGKERELVATISRSGCSTYYADSVKGRFTISRDNAKNTVYLQMNSLKPEDTAVYYCAAKTILWKYYPYYYVTYDYWGQGTQVTVSS”, for which the “polyreactivity (PSR sort gate)” value is given as “high polyreactivity”. The same measure for “QVQLVESGGGLVQAGGSLRLSFAASGGIFWHYTRGWYRQAPGKERELVAAITRRGGSTYYADSVKGRFTISRDNAKNTVYLQMNSLKPEDTAVYYCAADFLPQSYNWYDYWGQGTQVTVSS”: “low polyreactivity”; for “QVQLVESGGGLVQAGGSLRLSFAASGLIFGYNAMGWYRQAPGTERELVAAISRRGTSTYYADSVKGRFTISRDNAKNTVYLQMNSLKPEDTAVYYCATYGVNPPGVEEYNYWGQGTQVTVSS”: “high polyreactivity”; for “QVQLVESGGGLVQAGGSLRLSFAASGLIFPSYTMGWYRQAPGNYGELVAGINSGGSTNYAESVMGRFTISRDIAKNTDYLQMNSQKAEHTAVYYCAKDNNYYWYVSPRDYWGQGTQVTVSS”: “low polyreactivity”. The same measure for “QVQLVESGGGLVQAGGSLRLSFAASGLTLYKNGMGWYRQAPGKETELVAVISRSGGRTYYADSVQGRFTISRDNAKNTVYLQMNSLKPEDTAVYYCAARQYGPRYTYYYWGQGTQVTVSS”: “high polyreactivity”. Under “QVQLVESGGGLVQAGGSLRLSFAASGNIFTFNAMGLYRQATGKDRELDAAIRSGGSTNYADSVKGRFTISRDNAKNTVDLQMNSLKPEDTAVYYCAAKRYVQGYVYRYGYWGQGTQVTVSS” stands “high polyreactivity”.
